Laboratory results published in US20240279356A1 (Xencor, published 2024).

How the values were obtained:
human MSLN antigen [1] = target: T1, human MSLN antigen (human, UniProt Q13421 296-580, limits assumed); test: Octet BLI on human MSLN antigen (Example 2B(a)); KD quoted in the FIG. 35 legend
T1 construct: Soluble antigen for BLI; also called Mesothelin; MESO
Text: (§1) Variants of MESO-C were engineered by introducing point substitutions into the variable heavy region (VH) and the variable light region (VL) to generate 11 VH variants and 16 VL variants (sequences for which are depicted in FIG. 18 as H1.1-H1.13 and in FIG. 19 as L1.1-L1.18). An additional 4 VL variants were generated by combining useful point substitutions (sequences for which are depicted in FIG. 19 as L1.19-L1.22). WT and variant variable heavy regions were paired with WT and variant variable light regions to generate variant variable regions (Fvs) which were produced in the context of anti-MSLN×anti-CD3 bispecific antibodies. The bispecific antibodies were screened for MSLN binding affinity using Octet®, a BioLayer Interferometry (BLI)-based method. Experimental steps for Octet® generally include the following: Immobilization (capture of ligand to a biosensor); Association (dipping of ligand-coated biosensors into wells containing the analyte); and Dissociation (returning of biosensors to well containing buffer). In an initial screening, anti-human Fc sensors were used to capture the bispecific mAbs and dipped into human MSLN antigen (one concentration to screen large library). The resulting dissociation constant of illustrative variants (KD), association rate (kₐ), dissociation rate (kd), as well as sensorgram response are depicted in FIG. 20. In further screening of favorite variants identified in the initial screen (and combination variants), bispecific mAbs were dipped into multiple concentrations of human MSLN antigen, data for which are depicted in FIG. 21 (from various screens).

[2] = target: T2, MSLN on OVCAR8 (MSLN^high) and other cancer cell lines (UniProt Q13421 296-598); test: flow cytometry on OVCAR8 cells, detected with A647-labelled anti-human Fc mAb
T2 construct: whole, on cells; Endogenous surface MSLN; also called MSLN^high OVCAR8 cells; MSLN^low SKOV3 and HT29 cells
T2 sequence (Q13421 other isoform, or with tags, fused parts or gaps limits assumed): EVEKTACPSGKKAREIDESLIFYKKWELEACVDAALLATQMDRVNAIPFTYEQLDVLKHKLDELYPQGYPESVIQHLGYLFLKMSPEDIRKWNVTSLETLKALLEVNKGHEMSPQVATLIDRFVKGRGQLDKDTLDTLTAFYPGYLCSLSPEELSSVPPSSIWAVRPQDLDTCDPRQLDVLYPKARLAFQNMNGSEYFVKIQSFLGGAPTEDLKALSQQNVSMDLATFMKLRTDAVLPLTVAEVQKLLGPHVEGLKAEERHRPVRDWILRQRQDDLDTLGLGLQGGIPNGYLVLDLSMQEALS
Description: Next, the effect of MSLN binding affinity was investigated. 100,000 OVCAR8 (MSLN^high) cells were treated with the indicated concentrations of the indicated test articles. […] Further, XENP32852 and XENP32853 which differ only in CD3 binding affinity have identical binding to OVCAR8 cells confirming that avid binding is due to the MSLN binding domain.

cyno MSLN = target: T3, cyno MSLN (Macaca fascicularis (cynomolgus)); test: Octet BLI; bsAb on anti-human Fc sensor, cyno MSLN as analyte, one concentration
T3 construct: soluble antigen for Octet; also called cynomolgus MSLN

human MSLN antigen [3] = target: T1, human MSLN antigen; test: Octet BLI; bsAb on anti-human Fc sensor, human MSLN as analyte, one concentration
Text: as §1

human MSLN antigen [4] = target: T1, human MSLN antigen; test: Octet BLI; bsAb on anti-human Fc sensor, human MSLN as analyte, several concentrations
Text: as §1

T1 sequence (Q13421 other isoform, or with tags, fused parts or gaps limits assumed): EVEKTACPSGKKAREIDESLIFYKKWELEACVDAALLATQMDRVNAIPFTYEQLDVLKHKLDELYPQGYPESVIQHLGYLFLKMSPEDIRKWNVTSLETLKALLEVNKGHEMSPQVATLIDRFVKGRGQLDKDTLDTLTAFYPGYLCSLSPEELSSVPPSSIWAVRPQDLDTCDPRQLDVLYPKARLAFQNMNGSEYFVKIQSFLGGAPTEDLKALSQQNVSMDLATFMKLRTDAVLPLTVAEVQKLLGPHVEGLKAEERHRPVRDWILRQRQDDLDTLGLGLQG

B1: XENP31697 (bispecific antibody)
heavy: QVQLVQSGAEVKKPGASVKVSCKASGYTFTSYWMHWVRQAPGQGLEWMGMIHPNSDNTIYYEKFQGRVTMTVDKSISTAYMELSRLRSDDTAVYYCAIIITPVVPKFDYWGQGTLVTVSSASTKGPSVFPLAPSSKSTSGGTAALGCLVKDYFPEPVTVSWNSGALTSGVHTFPAVLQSSGLYSLSSVVTVPSSSLGTQTYICNVNHKPSDTKVDKKVEPKSCDKTHTCPPCPAPPVAGPSVFLFPPKPKDTLMISRTPEVTCVVVDVKHEDPEVKFNWYVDGVEVHNAKTKPREEEYNSTYRVVSVLTVLHQDWLNGKEYKCKVSNKALPAPIEKTISKAKGQPREPQVYTLPPSREEMTKNQVSLTCDVSGFYPSDIAVEWESDGQPENNYKTTPPVLDSDGSFFLYSKLTVDKSRWEQGDVFSCSVMHEALHNHYTQKSLSLSPGK
scFv-Fc: not shown
light: DIVMTQSPDSLAVSLGERATINCKASHDVGTSVAWYQQKPGQSPKLLIYWASTRHTGVPDRFTGSGSGTDFTLTISSLQAEDVAVYFCQQYSSYPLTFGAGTKLEIKRTVAAPSVFIFPPSDEQLKSGTASVVCLLNNFYPREAKVQWKVDNALQSGNSQESVTEQDSKDSTYSLSSTLTLSKADYEKHKVYACEVTHQGLSSPVTKSFNRGEC
notes: 1+1 Fab-scFv-Fc anti-MSLN x anti-CD3
Q: B1 was tested. Which Kd (human MSLN antigen [1]) did it give?
A: 0.28 nM

Q: What about the “EC50 (read off the curve)” value [2] of the same binder?
A: ~0.07 µg/mL

B2: XENP31717 (bispecific antibody)
heavy 1: QVQLVQSGAEVKKPGASVKVSCKASGYTFTSYWMHWVRQAPGQGLEWMGMIHPNSDNTIYYEKFQGRVTMTVDKSISTAYMELSRLRSDDTAVYYCAIIITPVVPKFDYWGQGTLVTVSSASTKGPSVFPLAPSSKSTSGGTAALGCLVKDYFPEPVTVSWNSGALTSGVHTFPAVLQSSGLYSLSSVVTVPSSSLGTQTYICNVNHKPSDTKVDKKVEPKSCDKTHTCPPCPAPPVAGPSVFLFPPKPKDTLMISRTPEVTCVVVDVKHEDPEVKFNWYVDGVEVHNAKTKPREEEYNSTYRVVSVLTVLHQDWLNGKEYKCKVSNKALPAPIEKTISKAKGQPREPQVYTLPPSREEMTKNQVSLTCDVSGFYPSDIAVEWESDGQPENNYKTTPPVLDSDGSFFLYSKLTVDKSRWEQGDVFSCSVMHEALHNHYTQKSLSLSPGK
heavy 2: QVQLVQSGAEVKKPGASVKVSCKASGYTFTSYWMHWVRQAPGQGLEWMGMIHPNSDNTIYYEKFQGRVTMTVDKSISTAYMELSRLRSDDTAVYYCAIIITPVVPKFDYWGQGTLVTVSSASTKGPSVFPLAPSSKSTSGGTAALGCLVKDYFPEPVTVSWNSGALTSGVHTFPAVLQSSGLYSLSSVVTVPSSSLGTQTYICNVNHKPSNTKVDKKVEPKSCGGGGSGGGGSQAVVTQEPSLTVSPGGTVTLTCGSSTGAVTTSNYANWVQQKPGKSPRGLIGGTNKRAPGVPARFSGSLLGGKAALTISGAQPEDEADYYCALWYSNHWVFGGGTKLTVLGKPGSGKPGSGKPGSGKPGSEVQLVESGGGLVQPGGSLRLSCAASGFTFSTYAMNWVRQAPGKGLEWVGRIRSKANNYATYYADSVKGRFTISRDDSKNTLYLQMNSLRAEDTAVYYCVRHGNFGDSYVSWFAYWGQGTLVTVSSGGGGSGGGGSKTHTCPPCPAPPVAGPSVFLFPPKPKDTLMISRTPEVTCVVVDVKHEDPEVKFNWYVDGVEVHNAKTKPREEQYNSTYRVVSVLTVLHQDWLNGKEYKCKVSNKALPAPIEKTISKAKGQPREPQVYTLPPSREQMTKNQVKLTCLVKGFYPSDIAVEWESNGQPENNYKTTPPVLDSDGSFFLYSKLTVDKSRWQQGNVFSCSVMHEALHNHYTQKSLSLSPGK
light: DIVMTQSPDSLAVSLGERATINCKASHDVGTSVAWYQQKPGQSPKLLIYWASTRHTGVPDRFTGSGSGTDFTLTISSLQAEDVAVYFCQQYSSYPLTFGAGTKLEIKRTVAAPSVFIFPPSDEQLKSGTASVVCLLNNFYPREAKVQWKVDNALQSGNSQESVTEQDSKDSTYSLSSTLTLSKADYEKHKVYACEVTHQGLSSPVTKSFNRGEC
notes: 2+1 Fab2-scFv-Fc anti-MSLN x anti-CD3
Q: Which results are given for B2?
A: Kd (human MSLN antigen [1]): 0.28 nM; EC50 (read off the curve) [2]: ~0.04 µg/mL

B3: XENP32563 (bispecific antibody)
heavy: QVQLVQSGAEVKKPGASVKVSCKASGYTFTSYWMHWVRQAPGQGLEWMGMIHPNSDNTIYYEKFQGRVTMTVDKSISTAYMELSRLRSDDTAVYYCAIIITPVVPKFDYWGQGTLVTVSSASTKGPSVFPLAPSSKSTSGGTAALGCLVKDYFPEPVTVSWNSGALTSGVHTFPAVLQSSGLYSLSSVVTVPSSSLGTQTYICNVNHKPSDTKVDKKVEPKSCDKTHTCPPCPAPPVAGPSVFLFPPKPKDTLMISRTPEVTCVVVDVKHEDPEVKFNWYVDGVEVHNAKTKPREEEYNSTYRVVSVLTVLHQDWLNGKEYKCKVSNKALPAPIEKTISKAKGQPREPQVYTLPPSREEMTKNQVSLTCDVSGFYPSDIAVEWESDGQPENNYKTTPPVLDSDGSFFLYSKLTVDKSRWEQGDVFSCSVMHEALHNHYTQKSLSLSPGK
scFv-Fc: not shown
light: DIVMTQSPDSLAVSLGERATINCKASHDVGTYVAWYQQKPGQSPKLLIYWASTRHTGVPDRFTGSGSGTDFTLTISSLQAEDVAVYFCQQYSSYPLTFGAGTKLEIKRTVAAPSVFIFPPSDEQLKSGTASVVCLLNNFYPREAKVQWKVDNALQSGNSQESVTEQDSKDSTYSLSSTLTLSKADYEKHKVYACEVTHQGLSSPVTKSFNRGEC
notes: 1+1 Fab-scFv-Fc
Q: B3 was tested. Which Kd (cyno MSLN) did it give?
A: 13.1 nM

Q: And the Response (cyno MSLN)?
A: 0.817

Q: And the koff (cyno MSLN)?
A: 0.00713 s⁻¹

Q: And the kon (cyno MSLN)?
A: 543000 M⁻¹ s⁻¹

Q: And the Kd (human MSLN antigen [1])?
A: ~12.8 nM

Q: What about the Response (human MSLN antigen [3]) of the same binder?
A: 0.898

Q: And the koff (human MSLN antigen [3])?
A: 0.00672 s⁻¹

Q: And the kon (human MSLN antigen [3])?
A: 527000 M⁻¹ s⁻¹

B4: XENP32937 (bispecific antibody)
heavy: QVQLVQSGAEVKKPGASVKVSCKASGYTFTSYWMHWVRQAPGQGLEWMGMIHPNSDNTIYYQKFQGRVTMTVDKSISTAYMELSRLRSDDTAVYYCAIIITPVVPKFDYWGQGTLVTVSSASTKGPSVFPLAPSSKSTSGGTAALGCLVKDYFPEPVTVSWNSGALTSGVHTFPAVLQSSGLYSLSSVVTVPSSSLGTQTYICNVNHKPSDTKVDKKVEPKSCDKTHTCPPCPAPPVAGPSVFLFPPKPKDTLMISRTPEVTCVVVDVKHEDPEVKFNWYVDGVEVHNAKTKPREEEYNSTYRVVSVLTVLHQDWLNGKEYKCKVSNKALPAPIEKTISKAKGQPREPQVYTLPPSREEMTKNQVSLTCDVSGFYPSDIAVEWESDGQPENNYKTTPPVLDSDGSFFLYSKLTVDKSRWEQGDVFSCSVMHEALHNHYTQKSLSLSPGK
scFv-Fc: not shown
light: DIVMTQSPDSLAVSLGERATINCKASHDVGTSVAWYQQKPGQSPKLLIYWASTRHTGVPDRFTGSGSGTDFTLTISSLQAEDVAVYFCQQYYSYPLTFGAGTKLEIKRTVAAPSVFIFPPSDEQLKSGTASVVCLLNNFYPREAKVQWKVDNALQSGNSQESVTEQDSKDSTYSLSSTLTLSKADYEKHKVYACEVTHQGLSSPVTKSFNRGEC
notes: 1+1 Fab-scFv-Fc
Q: B4 was tested. Which Kd (human MSLN antigen [1]) did it give?
A: 10.2 nM

Q: What about the Response (human MSLN antigen [4]) of the same binder?
A: 0.183

Q: And the koff (human MSLN antigen [4])?
A: 0.00822 s⁻¹

Q: What about the kon (human MSLN antigen [4]) of the same binder?
A: 803000 M⁻¹ s⁻¹

B5: XENP32745 (bispecific antibody)
heavy 1: QVQLVQSGAEVKKPGASVKVSCKASGYTFTSYWMHWVRQAPGQGLEWMGMIHPNSDNTIYYEKFQGRVTMTVDKSISTAYMELSRLRSDDTAVYYCAIIITPVVPKFDYWGQGTLVTVSSASTKGPSVFPLAPSSKSTSGGTAALGCLVKDYFPEPVTVSWNSGALTSGVHTFPAVLQSSGLYSLSSVVTVPSSSLGTQTYICNVNHKPSDTKVDKKVEPKSCDKTHTCPPCPAPPVAGPSVFLFPPKPKDTLMISRTPEVTCVVVDVKHEDPEVKFNWYVDGVEVHNAKTKPREEEYNSTYRVVSVLTVLHQDWLNGKEYKCKVSNKALPAPIEKTISKAKGQPREPQVYTLPPSREEMTKNQVSLTCDVSGFYPSDIAVEWESDGQPENNYKTTPPVLDSDGSFFLYSKLTVDKSRWEQGDVFSCSVMHEALHNHYTQKSLSLSPGK
heavy 2: QVQLVQSGAEVKKPGASVKVSCKASGYTFTSYWMHWVRQAPGQGLEWMGMIHPNSDNTIYYEKFQGRVTMTVDKSISTAYMELSRLRSDDTAVYYCAIIITPVVPKFDYWGQGTLVTVSSASTKGPSVFPLAPSSKSTSGGTAALGCLVKDYFPEPVTVSWNSGALTSGVHTFPAVLQSSGLYSLSSVVTVPSSSLGTQTYICNVNHKPSNTKVDKKVEPKSCGGGGSGGGGSQAVVTQEPSLTVSPGGTVTLTCGSSTGAVTTSNYANWVQQKPGKSPRGLIGGTNKRAPGVPARFSGSLLGGKAALTISGAQPEDEADYYCALWYSNHWVFGGGTKLTVLGKPGSGKPGSGKPGSGKPGSEVQLVESGGGLVQPGGSLRLSCAASGFTFSTYAMNWVRQAPGKGLEWVGRIRSKANNYATYYADSVKGRFTISRDDSKNTLYLQMNSLRAEDTAVYYCVRHGNFGDSYVSWFAYWGQGTLVTVSSGGGGSGGGGSKTHTCPPCPAPPVAGPSVFLFPPKPKDTLMISRTPEVTCVVVDVKHEDPEVKFNWYVDGVEVHNAKTKPREEQYNSTYRVVSVLTVLHQDWLNGKEYKCKVSNKALPAPIEKTISKAKGQPREPQVYTLPPSREQMTKNQVKLTCLVKGFYPSDIAVEWESNGQPENNYKTTPPVLDSDGSFFLYSKLTVDKSRWQQGNVFSCSVMHEALHNHYTQKSLSLSPGK
light: DIVMTQSPDSLAVSLGERATINCKASHSVGTSVAWYQQKPGQSPKLLIYWASTRHTGVPDRFTGSGSGTDFTLTISSLQAEDVAVYFCQQYSSYPLTFGAGTKLEIKRTVAAPSVFIFPPSDEQLKSGTASVVCLLNNFYPREAKVQWKVDNALQSGNSQESVTEQDSKDSTYSLSSTLTLSKADYEKHKVYACEVTHQGLSSPVTKSFNRGEC
notes: 2+1 Fab2-scFv-Fc
Q: With B5 as the binder, how does the Kd (human MSLN antigen [1]) read?
A: 0.45 nM

Q: And the “EC50 (read off the curve)” value [2]?
A: ~0.05 µg/mL
